Read-outs that look alike come from different tables or passages of the source.
Tests used:
[1] = molecular target: CD19 on CD19+ Raji B cells (UniProt P15391); assay: cell-based or functional assay
[2] = molecular target: CD19 on CD19+ Raji B cells (UniProt P15391); assay: cell-based or functional assay; remark: listed apart in the source

Sequence of UniProt P15391 (P15391 20-556 limits assumed): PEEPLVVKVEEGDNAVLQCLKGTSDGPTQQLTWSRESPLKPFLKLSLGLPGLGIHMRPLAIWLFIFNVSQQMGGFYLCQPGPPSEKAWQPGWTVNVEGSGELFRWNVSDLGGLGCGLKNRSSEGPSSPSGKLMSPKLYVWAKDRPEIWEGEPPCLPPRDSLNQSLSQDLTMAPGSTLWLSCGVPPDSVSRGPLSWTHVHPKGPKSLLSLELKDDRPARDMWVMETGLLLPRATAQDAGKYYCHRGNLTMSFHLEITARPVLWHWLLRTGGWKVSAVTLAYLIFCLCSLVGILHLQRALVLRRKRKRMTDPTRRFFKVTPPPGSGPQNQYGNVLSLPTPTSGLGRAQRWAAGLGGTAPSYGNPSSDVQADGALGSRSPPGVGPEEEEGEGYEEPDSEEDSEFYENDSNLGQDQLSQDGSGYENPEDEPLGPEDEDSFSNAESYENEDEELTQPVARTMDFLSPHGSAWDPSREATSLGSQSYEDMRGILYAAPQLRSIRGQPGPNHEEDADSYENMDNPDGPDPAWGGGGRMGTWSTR

anti-CD19 CAR (anti-CD19 CAR cassette as described in WO 2012/079000), expressed on transduced CD4+ T-cells
change in activated cells in the population (CD25 and CD69 staining, flow cytometry, 24 h co-culture) [1]: 0.9 to 84.8% | change in activated cells in the population (CD25 and CD69 staining, flow cytometry, 24 h co-culture) [2]: 3.9 to 12.1%

Reference: US20220226381A1
